In publication PMC9705314, “Characterization of a new potent and long-lasting single chain peptide agonist of RXFP1 in cells and in vivo translational models” (Scientific Reports, 2022):

Columns and labels:
human RXFP1 (human) = human RXFP1 (human) (UniProt Q9HBX9)
rat RXFP1 (rat) = rat RXFP1 (rat) (UniProt Q6R6I6)
Sequence of rat RXFP1 (rat) (Q6R6I6 whole entry): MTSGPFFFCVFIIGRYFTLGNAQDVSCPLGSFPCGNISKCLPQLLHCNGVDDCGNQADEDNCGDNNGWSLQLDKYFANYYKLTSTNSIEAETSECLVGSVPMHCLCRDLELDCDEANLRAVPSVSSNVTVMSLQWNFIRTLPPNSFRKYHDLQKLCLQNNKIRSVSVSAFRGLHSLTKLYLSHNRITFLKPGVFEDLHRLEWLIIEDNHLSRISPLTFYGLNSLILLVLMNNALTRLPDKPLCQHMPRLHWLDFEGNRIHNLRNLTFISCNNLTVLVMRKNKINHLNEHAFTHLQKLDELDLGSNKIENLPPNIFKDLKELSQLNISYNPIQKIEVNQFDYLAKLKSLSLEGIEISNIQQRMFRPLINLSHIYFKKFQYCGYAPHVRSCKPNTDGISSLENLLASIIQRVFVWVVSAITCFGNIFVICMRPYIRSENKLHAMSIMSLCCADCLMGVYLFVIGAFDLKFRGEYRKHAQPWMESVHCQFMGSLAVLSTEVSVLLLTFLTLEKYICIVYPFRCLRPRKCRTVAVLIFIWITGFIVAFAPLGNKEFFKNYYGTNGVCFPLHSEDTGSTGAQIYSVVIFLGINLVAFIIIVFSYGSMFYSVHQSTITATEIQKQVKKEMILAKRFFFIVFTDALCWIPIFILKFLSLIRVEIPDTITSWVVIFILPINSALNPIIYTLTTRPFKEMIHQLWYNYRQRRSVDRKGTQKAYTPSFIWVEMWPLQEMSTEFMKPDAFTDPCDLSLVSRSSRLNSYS

Sequence of human RXFP1 (human) (Q9HBX9 whole entry): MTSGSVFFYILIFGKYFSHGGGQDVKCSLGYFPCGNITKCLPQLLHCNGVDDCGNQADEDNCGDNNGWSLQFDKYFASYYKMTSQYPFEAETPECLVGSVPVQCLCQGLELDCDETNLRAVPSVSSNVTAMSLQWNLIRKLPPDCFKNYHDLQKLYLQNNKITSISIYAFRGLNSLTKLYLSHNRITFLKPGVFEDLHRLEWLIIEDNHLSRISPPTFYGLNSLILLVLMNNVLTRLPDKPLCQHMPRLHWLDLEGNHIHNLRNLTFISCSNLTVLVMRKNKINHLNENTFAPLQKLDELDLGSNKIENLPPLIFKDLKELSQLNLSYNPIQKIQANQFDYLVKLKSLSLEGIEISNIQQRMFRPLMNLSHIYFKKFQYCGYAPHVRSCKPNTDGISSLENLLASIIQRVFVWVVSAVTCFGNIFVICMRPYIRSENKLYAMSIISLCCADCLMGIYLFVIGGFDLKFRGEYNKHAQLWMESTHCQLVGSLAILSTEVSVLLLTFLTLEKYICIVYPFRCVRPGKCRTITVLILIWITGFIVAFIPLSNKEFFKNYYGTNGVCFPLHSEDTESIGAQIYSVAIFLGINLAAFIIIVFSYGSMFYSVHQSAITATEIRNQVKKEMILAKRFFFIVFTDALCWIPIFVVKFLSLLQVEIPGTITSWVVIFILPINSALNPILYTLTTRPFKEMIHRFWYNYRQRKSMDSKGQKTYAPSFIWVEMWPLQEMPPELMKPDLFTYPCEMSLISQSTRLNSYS

cAMP (HTRF) in EA.hy926 hRXFP1 cells, EC50 (human RXFP1 (human)): 0.06 nM
cAMP (HTRF) in EA.hy926 hRXFP1 cells, Emax (% of the 100 nM relaxin response) (human RXFP1 (human)): 100%
cAMP (HTRF) in OVCAR5 cells with endogenous human RXFP1, EC50 (human RXFP1 (human)): 1.8 nM
cAMP (HTRF) in OVCAR5 cells with endogenous human RXFP1, Emax (% of the 100 nM relaxin response) (human RXFP1 (human)): 96.2%
cAMP (HTRF) in HEK ratRXFP1 cells, EC50 (rat RXFP1 (rat)): 1.4 nM
cAMP (HTRF) in HEK ratRXFP1 cells, Emax (% of the 100 nM relaxin response) (rat RXFP1 (rat)): 95.6%
Substance: Human recombinant relaxin (B-29/A-24) (ligand)
